Test results published in the DeepSol protein solubility set.

test: soluble on expression in E. coli; label from the status in PepcDB or PDB records

Sequence	soluble on expression in E. coli
IQILSKSKLEKCEKTSDSGNLNCSTKIVLNLAVPSGSSGGEASIVAEIVEVEDNSSSNMQTVRIPPVITVNKSAAYALYDLTYIRDVPYKPQEYHVTTRKCEPDAGPDIVQICERLRDEKGNVLEQTQPICCPCGPQRRMPSSCGDIFDKMIKGKANTAHCLRFPGDWFHVFGIGQRSLGFSVRVELKTGTRVSEVIIGPENRTATANDNFLKVNLIGDFGGYTSIPSFEDFYLVIPREAAEAGQPGSLGANYSMWMLLERVRFTLDGLECNKIGVGYEAFNTQPNFCSSPYWSCLHNQLWNFRESDINRIDRHQLPLYGLEGRFERINQHPNAGPHSFSIGVTETLNTNLMIELRADDIEYVFQRSPGKIINIAIPTFEALTQFGVAAVIIKNTGEVEASYSLTFDCSKGVAFVEEQFFIIKPKAVTTRSFKLYPTKDQAAKYICTAILKDSQFSEVDRAECQFSTTATVLDNGTQVTNPFQIPETQPKGFFDSIRILWTKIINGLVDFITGDTCRNKCSSFFDFSCHIQYVCLS	not soluble
MAFDGCCPDCKLPGDDCPLIWGACNHAFHLHCILKWVNSQTSQAHCPMCRREWQFKE	soluble
TESVYITTPYLIIDYDLTETIKNAAMRGVDVRIITPYIPDKKFIQLVTRGAYPDLLSAGVRIYEYSPGFIHSKQMLVDEDFAVVGTINLDYRSLVHHYENAVLLYKTPSIREIARDFRNIFADSQEVYPHSIKT	not soluble
MEIIKIDSHKDIEQQEDSVLVLGYFDGLHRGHKELFNQAREIAQKMQLKIVVLTFPESPQLAFTRFEPDLLNHINYPEKRYCKFAEYGVDCLYLTDFTSSFAKISSDDFIKNYIKALKAKAVVMGFDYKFSHSKANSDYLKHHFAGQVITVPEVQYEGKKISSTRVRQLIKQGDMTQVNRLLGYEFSTRGIVVHGDARGRTIGFPTANLAPLDRTYLPADGVYVADVIVGRKRYRSMTSIGKNITFGGTELRLEANIFDFDDDIYGETIEIFWLNKIREMVKFNSVNDLVEQLKSDKEIAINWGKS	not soluble
MIHPARPLRGQAALEARDPNARLEEAVGLAVALDLNVVEALVAPLRVVTPATLFGKGKVEEFAAICEVEHIDVAVFDDQLTPIQQRNLEKALKVKVVDRTGLILEIFARRARTREGRLQVELARLDYERSRLVRTWTHLERQRGGTGSTGGPGETQIEIDRRLIAGTILKLKKELEEVRRTRTLHRSARKKVPYPTVALVGYTNAGKSTLFNRLTEAEVLAKDMLFATLDPTLRTVKLPDGRPAIMSDTVGFISDLPHELVEAFRATLEEVQEADVVLHVRDVANPDSEAQARDVETVLAELGVTLDEGKTVVEVWNKVDLLSEDDREIVEGQARRNDASAVSAVTGEGCEALLRRIAGLIDDSPPVEVSLAAQDGQALAWIYRNGRVLSRYDGPGGEVTLVARLDAQALGRFERQFPGAQVSAAVDLEHHHHHH	soluble
MGSDKIHHHHHHKDYKTFPDKYTLSSVDVGGMTAKEAKKAIKKAIDKYQIKVKLDDAEFEMNAEDLGLEYNEKADMQTLINAANRNKVPDKQVKLFNMKKGDEMQNALVDSYITAMTEAQTDSTSNTDNDTDDTKQADKSDAEIFDIKTVVPYRATITYNADAGQFEGVDGVSGDAPIYDKAATKLSSAVKEMKKKAELESSTGYVEGEKAADSDAVKKALKEADAYLDVTVQRHL	not soluble
MAHHHHHHMSSGRRDIIFFGSIAVSILGHEVHDEAVAPQLERQNARIKLHTTARAPYAKTEEVFGLDATSPLYEIHSADFKASPTSSLTPQRGAPHPRHHRQKAAFLPVMLKLAQDAAVEEVPSIEDQDGALLQLDSPTNNVDPAPSYASASVRIEVDMSRSGGDATPVGTKEVFLPSLNYLAIRDMCTVVRIPVWSNTIQRSETGDVDVAELDRRSPQPQRAGDDNSSSSSGVLGGVRDRNSRGDAVSGVALSVYAMVRVISLAEKVRLALEADDAVRCLLGLPDPVPGVSLALTQRGDAPYGAMPLTELYKHHRQFFGYYSNTIIKHSNVVTQRLAEAPRQREADASFPHRWNTLTVVDLRPALLGEDAFAPLLVTLAYCANLRALYADGNHLGDLTCARLSALFRRHRYLARVSLSKNTIHEAGGEHLLRLVRNNLRITSMPCQGNYFSDALRSRIEEVARRNASVIAQDPLNIFSASYDYLTDLSSLPNSLQQQGLRTWAMLSAAPVGDVDVMVRNFTTSTQRTLGDSPVVAMQRAKTALRARESFSLIPPAALAPFLNEIMRTVSVGVSRVLPDPLVRSLFSDMETVVAREQEQVEAQRRDELAGGSRDASLLPPEVCDAVGGAYTPPVDSETMYARSFVRIVVAALRGVALGTPWAEIAKVLEGIGRVHRDLGVMPEDYWLAVHIFMTSLRISCGAECYDADSASSFLGLLALAVRTAVGTDTVLQ	not soluble
PHLAFFAFAGALGFAGWRQSKKPVQDTQIEQVEALSQAMQEEDTPLTWDDIPHVHTLSLALGYRLVHLVNKDQGAPLSQRIRGVRRNLSEQVGFLLPEVRIRDNLSLKPNQYTISLNGEVIEQGFIEPERLMAIAVGDTYGEIDGILGSDPAYQLPAVWIEHQDKAKALNMGYQVVDDGTVIATHISKIMKTNLAELFTHDDVEAMTQRLTQQAPKLAEALAAALNPAQQLKVYRQLLLDQVPLKDIRTIANTMLESSENTKDPILLAADVRCALKRTLVNLIAGQKPELNVYALSDELEQMLLTSLQQAQASGTVVLDSFPIEPNILGQFQQNLPLIRQQLKQQGLPPILLVMPQLRPLLARYARTFTQGLAVLSYNEIPENKQINVVGNLG	not soluble
GEALDYKTPLLKALAAVDKAATEVCQLFDKNVTRVFTNLGWEQEYFLVDSSLYNARPDLCLTGRTLMGHSSAKDQQLEDHYFGSIPPRVTAFMKELEIECHKLGIPAKTRHNEVAPNQFELAPIFENCNLANDHNQLVMDLMKRIARKHHFNVLLHEKPYSSVNGSGKHNNWSLCTDTGINLFAPGKNPKGNMLFLTFLVNVLMMVYKNQDLLRASIMSASNSYRLGANEAPPAILSCFLGSQLSATLDEIVRQVGNEKMTPEEKTTLKLGIGRIPEILLDTTDRNRTSPFAFTGNRFEFRAAGSSSNCAAAMIAINAAMANQLNEFRASVEKLMEEGVGKDEAIFRLLKETIIASEAIRFEGDGYSEEWRQEAARRGLTNICHVPEALMHYVDNQSKSVLIGERIFNETELNSRLEVELEKYTMKVQIEGRVLGDLAINH	not soluble
MSLAESQLSKLDVNLQSLNPYTFSKTRCIVNLHISDDTKNRDPSTTNGSYSNSQLLSNGEHVCYHFSQDYCVLSIYPVTDAITGKTVVVHLPHETFNDHHTFTMAEEDGCIVMDLILKTGLFLTLRFSLEYLFNRNADINSSWYSLLKPYDFTVRLPDYLYKVNSALSIVYLNDGGLLGLQKTQTSGSDEYDLHPVLFNDNSYFQSFTRFFSHNDSGRENVVSSVSYGDYHLLTLTENCKLRIWDLRTNSVTAQLNLITDPQDKHRKYESIGPYLALLDSVLVVFLPFGNGAFRTFQLSVNNSGGLVLTPRGELIRTNLSTASIWSLVDTKLTKPFELNIETSYLQMVVLWKSNTSIKLQILNFETEALDKHSWVEASNKSLPDILDNDILGDNFEQSLLDLKAHYTPAIYEEAQRILSANGEGHHHHHH	not soluble
MGGSHHHHHHMASSVPIPGIKDISKLKFFYGFKYLWNPTVYNKIFDKLDLTKTYKHPEELKVLDLYPGVGIQSAIFYNKYCPRQYSLLEKRSSLYKFLNAKFEGSPLQILKRDPYDWSTYSNLIDEERIFVPEVQSSDHINDKFLTVANVTGEGSEGLIMQWLSCIGNKNWLYRFGKVKMLLWMPSTTARKLLARPGMHSRSKCSVVREAFTDTKLIAISDANELKGFDSQCIEEWDPILFSAAEIWPTKGKPIALVEMDPIDFDFDVDNWDYVTRHLMILKRTPLNTVMDSLGHGGQQYFNSRITDKDLLKKCPIDLTNDEFIYLTKLFMEWPFKPDILMDFVDMYQTEHSG	soluble
MSLQVSLNPEWLARNNDEHKIRRNDHRSPFQRDRARILHSAAFRRLQAKTQVHGTSLNDFHRTRLTHSLEAAQIGTGIVAQIKLKQPEFRELLPSDSLIDSLCLAHDIGHPPYGHGGEIALNYMMRDHGGFEGNAQTFRIVTSLEPYTEHHGMNLSRRTLLGLLKYPALLSATRAAIPPPAVAHQRQLKAKDWSPAKGIYDCDLASLDWVLEPLCESDRELLGQMRAEPSSPKEHRKTRFKSLDCSIMELADDIAYGVHDLEDAIVLGMVTRAQWQEAAAAQLAECGDPWFEEHIAELSEMLFSGKHYVRKDAIGGIVNALLTSISVKPVEAPFHNELLAFNAYIEPHMGNALEVLKHFVSQYVIQIPQVQRFEYKGQQLIMDLFEALSADPERLLPQATGEKWRKAQEQDEGMRVICDYIAAMTDAYAQRLHQQLFSAQSHYEGGSHHHHHH	soluble
MASVPVYCLCRLPYDVTRFMIECDMCQDWFHGSCVGVEEEKAADIDLYHCPNCEVLHGPSIMKKRRGSSKGHDTHKGKPVKTGSPTFVRELRSRTFDSSDEVILKPTGNQLTVEFLEENSFSVPILVLKKDGLGMTLPSPSFTVRDVEHYVGSDKEIDVIDVTRQADCKMKLGDFVKYYYSGKREKVLNVISLEFSDTRLSNLVETPKIVRKLSWVENLWPEECVFERPNVQKYCLMSVRDSYTDFHIDFGGTSVWYHVLKGEKIFYLIRPTNANLTLFECWSSSSNQNEMFFGDQVDKCYKCSVKQGQTLFIPTGWIHAVLTPVDCLAFGGNFLHSLNIEMQLKAYEIEKRLSTADLFRFPNFETICWYVGKHILDIFRGLRENRRHPASYLVHGGKALNLAFRAWTRKEALPDHEDEIPETVRTVQLIKDLAREIRLVEDIFQQN	soluble
MYSRADRLLRQFSLKLNTDSIVFDENRLCSFIIDNRYRILLTSTNSEYIMIYGFCGKPPDNNNLAFEFLNANLWFAENNGPHLCYDNNSQSLLLALNFSLNESSVEKLECEIEVVIRSMENLYHILQDKGITLDTDYTHHHHHH	soluble
MGSDKIHHHHHHMLEEGEHVLVAVSGGIDSMTLLYVLRKFSPLLKIKITAAHLDHRIRESSRRDREFVERICRQWNIPVETSEVDVPSLWKDSGKTLEEIAREVRYDFLKRTAKKVGASKIALAHHKNDLLETVVHRLIRGTGPLGLACISPKREEFIRPFLVFKRSEIEEYARKNNVPYVVDETNYNVKYTRNFIRHRIVPLMKELNPTVEDAVYRLVSVTHLLRNFVERTVQDFVERNVYFYKDYAVFVEPEDLFLFLEVTRWVLKEMYGRVPEYEKLIGTLKSKRVELWSGIFVERSFGYVAVGKTVFKKKYRVEVKGDMLEMEGFKIRVVNNRNDMKFWVRNRKEGDRIIVNGRERKLKDVFIEKKVPTFYRDRVPLLVDEEDRVLWVPGIARSDFLPEDVVVELLEYPVGYVKGGTYFEQV	not soluble
MAQWSTMSTADRDFVVRFPTGTSDPLSDAEIQQYREEIDRLDKEILAAVKRRTEISRAIGKTRMGSGGTRLVHTREVAIINQFREEIGEEGPALAGILLRMGRGRLGEAR	not soluble
SLDEAEMKAVNIHDGIDGTLMILHHRLKAAIRRPKIEIVKDYAKLPLIECYPGKLNQVFMNILANAIDALEEGMGNEEIPPPTGQITIRTEVLDNQWVVIRIADNGPGMKEEVIRRIYDPFFTTKDVGKGTGLGMAISYQIVVDKHGGMLKCRSQPGEGTEFWIQIPVNCALADAAEEG	soluble
TDVATVVSQAKAQMKEAYYTYSHTVTETGQFPDIKDVYAAYNKAKQAYANAVAVVNKAGGAKKDAYLADLQAIYETYVFKANPKSGEARVATYIDAYNYATKLDKMRQELKAAVDAKDLKKAEELYHKISYELKTRTVILDRVYGQSTRELLRSTFKADAQALRDRLIYDITVAMKAREAQDAVKAGNLDKAKAALDQVNQYVSKVTDAFKAELQKAAQDAKAAYEAALTPKVESVSAIDSTSFKVTFTKPVDKATAIPKNFSITLKGTETKLYPKSVEVSESGLTATVTLYDTLVDGKTYTVVTSGLKDTAGKEFETSTNEFTYNKPVPASITFNFNKLPEDSAVDLTKYVTVKDAAGNVIKSGFELEFTSSEKLTQGKFINTTGKKSVIVNATVKGTNVTTGNVILAVED	soluble
